From the NTF2 design screens of Basanta et al. (2020) come the findings set out here.

This data set can be described thus: protease stability score; higher = more stable; yeast display proteolysis, trypsin and chymotrypsin.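 Further: relative to predicted unfolded state with 0 unfolded-like and 1 meaning tenfold more protease.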
For “TEEEEHSKTLAEELLRVLLTGDEDTLHELFDPHARFHYGDKLHIGREEVTKALREVYERIDHYEVKHLEIQGDKVHVDGEHHIGDKSIRVRVHAWIVNGVVKQYHEHSL”, the protease stability score amounted to 1.02. Regarding “TEEEEHTDMVRRIWVEIAKTGDERSWEKYFDPNARMHIFFNGQEIELHGRETITKWLHETLTRIKGLRMEIEHFENIGDKVHMDTRFIIGDKERKSEVEIIVVDGRLKSVTIRHR”, the protease stability score was 1.78. Sequence “TEEEEHWKHLVELWLRAVETGDEHLLHRLLDPHVKIDYNGKELHGRETHIKIERHFRERYKGLRWEIKHHEIQGDKAHVDFLLNVNGREHRVRIEIIIVNGRVHQIHFDIN” had a protease stability score of 2.23.

As to “TEEEEILHEELRRHKEALETGDEDRLRHLIDPRARMDVNGREFHGMEHIVHFLVEFLLKFKNVRFEIKDFTKIGEYIYVDIHIIVDGRRHHMTVVALKVDGRWRNRHLHID”, the protease stability score worked out at 1.18. On to “TEEEEILREAYELFFKMMKTGDEHMKSRLADPNVRLHIGDKENHGMDEVIRVFREEHKRYKNLTLRHWHLEDSHVVNGRIILHYKMNVEVNGVEIETSVHVVIRKINGKWELESLSVE”, for which the protease stability score came out at 0.882. For the sequence “TEEEEIVTRALDKFREDLDTGDWKSIKHNFDPDVRLVFENHSTHGRELAVTIAEHIFKRFDYVHDSRNEHIKFQGDKVEWHSHYDGTINGRRMEVRILLIVRKYNGVWIIEEYLIV”, the protease stability score was 1.47. For “TEEEEIYERVARLWAEAMLTGDWKTETNLLDPHTRYDYDVDGKHIHLHGREHFKKMLEDLLRHLRFRIRVEEIHVYGEKVEVHGKLDIHVGDKTTHEHTSVQIYVVNGKMKSIRVHSH” the value was 1.49. In the case of “TEEEEKSEHLIRLLLHILTTGDEDTYSWLLDPNAKLTFNGVEFHGREDLRRFWEEHLHRLGVDHRDIKDLKRQGDKVIIHNKIHVNGRTIHQEVEIEVINGKAKFNTVILE”, the protease stability score came to 0.412.

The sequence “TEEEEKSWRLAEWFFRIIETGNEHEQKRLADPHVQIHIQIDGRHIHLHGWEELMKELKRLGIKYHKIERLRVIGEKIDEEGRLEINGREHDVRIHILIINGRMNSIHIHIE” came in with a protease stability score of 1.66. For “TEEEEKVMEIIEIILHVLKTGDEHLLENLIDPNARSEYGDKELHGREQILRFAWWVSHHIRLKHLHIDSMRVFNGRIEIHGHNIGEINGRESEIHLSLIMIKVDGQWKIHSMRFE” the value was 1.44; for “TEEEELAHEALRRFTREWVTGDEDLLQNLLDPHTKIEIDGRELHGWHEMVRYYRHLGFDVNEFHLHRFHIQGDKIRVDGELRFHVDGRTHTIRFTIVARKVNGKWLNTHEHYK”, 0.721; for “TEEEELAHHLVRLLIELWRTGDEEILRHLADPNVKLIYGDKTDHGREKSHRWMKELLDRYDHVEIIIRREEVQGEKAHSDVELVVNINGVREVYEVHLHFIVVNGKIREERIEVR”, 0.989. For “TEEEELEEKIARRFLTIWLTGDEERLRELADPNVRLEIDINGVTLEYHGRDELAHMFDHELKKLGFKHLHLESLRVINGVVHSNVRITFNGQERESKIINIVINGRLHTLILRWE” the value was 1.41; for “TEEEELLKKFMKDFIQKHVTGDWDSLYKMADPDVKWHINGQQSIGREEVHRMWSEKLKRIDHIEHFHDESIHVIDGRVTLRGRITGNVDGRRYDVEVDFHLFVVDGKLKQFHVHHQ”, 0.849. Sequence “TEEEELLTRLARQILRWLLTGDEDKHSRMLDPRDRSVIGDKESVGMEESVKNWRIWLEEMRLKHVQLRDVRIVDGVVHLDIHLFGHINGVHIDRESRMDVYIVNGRIHRIRIIEH” returned a protease stability score of 1.3. For “TEEEELRRRHAKELLDIWRTGDEHLMSHLADPHVRSIIDGVTVIGRDEWMKYLRILREHLGVKHIEHKDFNIQGDKVDVHGTMHVNGREIEVRSHFYVIDGRVRSNEIRFH” the value was 0.256; for “TEEEELSELILELTERMIKTGDEKTLHRLMDPNARTVIGDKQDHGMRTIFNIMEELSERIKNARFSLKHIDVDGDKVKIWSTLNYDGRRWEVEIVARKIDGQWRLEEFRIR”, 0.626. For “TEEEELSRKAAEILDEAQQTGDEDSIRELVDPNVKYEINGRIFVGWQEMLHAFRLELRHIRLREVHIKREKRIGNWMFIDSSMDGEVNGVRTERKSELVFLKFDGQWSLHSMRIE” the value was 1.56; for “TEEEEMYHKFAHEIARNLVTGDEDRLLELADPHVKSNVNGVELHGMEHFLEFWIHIVKEIRVHLRITHVTVINGVVIHDSEYEFIVNGKRHTTRVEIWWVVVDGRVHRVELRFK”, 1.17.
